The target in test [1] is Arginine-specific gingipain RgpB (Porphyromonas gingivalis) (UniProt P95493). As to the kind of experiment: progress curve analysis of protease inhibition.
Test [2] deals with Lysine-specific gingipain (Kgp), purified (Porphyromonas gingivalis) (UniProt Q51817). As to the kind of experiment: progress curve analysis of protease inhibition.
In test [3] the target is Arginine-specific gingipain RgpB (Porphyromonas gingivalis) (UniProt P95493). As to the kind of experiment: titration of residual protease activity.
For test [4], the target named is Lysine-specific gingipain (Kgp), purified (Porphyromonas gingivalis) (UniProt Q51817). As to the kind of experiment: titration of residual protease activity.
Test [5] addresses Thiol protease (Tpr) (Porphyromonas gingivalis) (UniProt P25806). As to the kind of experiment: progress curve analysis of protease inhibition.
Test [6] shares this target. As to the kind of experiment: titration of residual protease activity.

UniProt Q51817, sequence (Q51817 25-1732): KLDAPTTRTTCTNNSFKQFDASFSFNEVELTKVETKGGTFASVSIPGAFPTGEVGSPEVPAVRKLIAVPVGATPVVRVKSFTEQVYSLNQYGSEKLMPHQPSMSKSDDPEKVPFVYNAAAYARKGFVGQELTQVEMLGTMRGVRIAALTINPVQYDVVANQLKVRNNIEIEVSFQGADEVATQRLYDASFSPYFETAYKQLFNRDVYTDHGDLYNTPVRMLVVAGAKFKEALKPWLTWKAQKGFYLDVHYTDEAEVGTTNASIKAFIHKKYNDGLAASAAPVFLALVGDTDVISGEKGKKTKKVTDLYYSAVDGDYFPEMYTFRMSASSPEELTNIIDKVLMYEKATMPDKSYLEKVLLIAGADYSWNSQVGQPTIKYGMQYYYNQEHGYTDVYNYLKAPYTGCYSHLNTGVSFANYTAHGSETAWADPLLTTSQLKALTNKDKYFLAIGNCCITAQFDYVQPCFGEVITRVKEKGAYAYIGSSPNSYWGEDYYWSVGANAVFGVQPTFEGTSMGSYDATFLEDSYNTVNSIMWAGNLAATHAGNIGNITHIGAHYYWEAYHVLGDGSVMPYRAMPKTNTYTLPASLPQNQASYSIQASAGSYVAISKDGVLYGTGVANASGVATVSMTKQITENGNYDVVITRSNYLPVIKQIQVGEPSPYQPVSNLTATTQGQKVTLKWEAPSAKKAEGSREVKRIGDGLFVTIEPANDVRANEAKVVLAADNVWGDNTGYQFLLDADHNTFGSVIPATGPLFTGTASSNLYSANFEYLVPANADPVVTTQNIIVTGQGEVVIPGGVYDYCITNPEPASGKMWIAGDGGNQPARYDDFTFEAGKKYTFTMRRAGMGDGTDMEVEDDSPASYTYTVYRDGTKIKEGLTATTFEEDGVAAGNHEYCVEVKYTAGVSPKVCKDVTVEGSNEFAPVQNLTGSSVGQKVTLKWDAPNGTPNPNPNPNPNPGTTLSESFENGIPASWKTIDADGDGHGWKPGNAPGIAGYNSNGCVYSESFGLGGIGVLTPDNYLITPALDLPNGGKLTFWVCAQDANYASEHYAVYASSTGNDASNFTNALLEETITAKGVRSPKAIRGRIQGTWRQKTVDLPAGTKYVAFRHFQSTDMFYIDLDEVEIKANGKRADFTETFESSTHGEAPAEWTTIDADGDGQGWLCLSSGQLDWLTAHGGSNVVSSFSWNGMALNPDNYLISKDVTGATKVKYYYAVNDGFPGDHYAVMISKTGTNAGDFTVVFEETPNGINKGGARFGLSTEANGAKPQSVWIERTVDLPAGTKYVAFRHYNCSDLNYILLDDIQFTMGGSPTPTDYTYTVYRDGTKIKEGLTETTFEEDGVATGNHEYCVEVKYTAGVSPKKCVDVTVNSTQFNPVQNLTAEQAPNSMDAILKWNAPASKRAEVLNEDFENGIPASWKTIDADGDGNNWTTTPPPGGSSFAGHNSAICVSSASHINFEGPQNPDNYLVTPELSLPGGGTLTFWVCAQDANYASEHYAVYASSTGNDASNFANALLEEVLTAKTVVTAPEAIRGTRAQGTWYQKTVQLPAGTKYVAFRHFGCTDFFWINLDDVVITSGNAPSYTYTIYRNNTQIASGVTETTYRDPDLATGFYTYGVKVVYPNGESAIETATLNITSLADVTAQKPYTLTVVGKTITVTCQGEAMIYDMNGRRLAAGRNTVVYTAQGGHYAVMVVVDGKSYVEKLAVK
UniProt P25806, sequence (P25806 whole entry): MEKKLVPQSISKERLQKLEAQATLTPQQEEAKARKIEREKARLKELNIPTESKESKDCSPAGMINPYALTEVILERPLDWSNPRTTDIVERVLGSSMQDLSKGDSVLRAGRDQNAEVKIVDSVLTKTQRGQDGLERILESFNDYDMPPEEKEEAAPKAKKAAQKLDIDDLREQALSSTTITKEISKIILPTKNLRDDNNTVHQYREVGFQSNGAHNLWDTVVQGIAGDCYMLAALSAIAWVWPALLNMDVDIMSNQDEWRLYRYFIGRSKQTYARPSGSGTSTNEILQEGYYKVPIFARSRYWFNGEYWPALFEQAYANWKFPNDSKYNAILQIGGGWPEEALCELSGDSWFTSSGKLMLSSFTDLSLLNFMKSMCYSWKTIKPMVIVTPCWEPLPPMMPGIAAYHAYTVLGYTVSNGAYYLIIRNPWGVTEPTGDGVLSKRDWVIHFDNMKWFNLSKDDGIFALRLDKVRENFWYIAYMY
UniProt P95493, sequence (P95493 25-736): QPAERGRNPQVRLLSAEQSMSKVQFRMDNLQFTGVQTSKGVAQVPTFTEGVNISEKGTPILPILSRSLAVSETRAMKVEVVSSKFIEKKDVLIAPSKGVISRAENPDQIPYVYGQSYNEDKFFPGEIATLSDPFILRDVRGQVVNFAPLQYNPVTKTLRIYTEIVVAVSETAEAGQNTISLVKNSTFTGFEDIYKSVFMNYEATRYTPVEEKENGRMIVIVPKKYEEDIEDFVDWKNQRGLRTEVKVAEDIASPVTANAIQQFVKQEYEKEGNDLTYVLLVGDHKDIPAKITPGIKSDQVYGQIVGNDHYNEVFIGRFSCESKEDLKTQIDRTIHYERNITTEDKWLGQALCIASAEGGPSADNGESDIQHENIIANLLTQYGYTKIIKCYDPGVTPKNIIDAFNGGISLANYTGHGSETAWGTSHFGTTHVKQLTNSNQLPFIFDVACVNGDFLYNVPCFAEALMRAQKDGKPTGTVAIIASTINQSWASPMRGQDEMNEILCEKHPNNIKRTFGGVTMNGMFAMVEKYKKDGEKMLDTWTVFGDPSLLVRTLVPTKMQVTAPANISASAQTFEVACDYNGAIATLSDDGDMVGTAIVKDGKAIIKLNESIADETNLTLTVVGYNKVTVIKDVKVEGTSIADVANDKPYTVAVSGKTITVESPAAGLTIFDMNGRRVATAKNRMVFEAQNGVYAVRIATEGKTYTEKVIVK

Take RVK-miropin (natural protein): the association rate constant (kon) – broadly, the second-order rate constant of association – turned out to be 740000 M⁻¹ s⁻¹ in test [1] and 330000 M⁻¹ s⁻¹ in test [2]. In addition, the stoichiometry of inhibition (SI) in test [3] and in test [4] was 1.7 each time.

“Recombinant wild-type miropin (VKT-mir) (natural protein)”: the kon in test [5] turned out to be 2500 M⁻¹ s⁻¹; in test [2] it was 220000 M⁻¹ s⁻¹. The stoichiometry of inhibition (SI) in test [6] is 9.3; in test [4] it was 1.9.

Source of the values: paper doi:10.1101/2025.09.05.674453.
